Laboratory results from patent US7741066B2, “Phosphorylated p68 RNA helicase as a marker for cancer and cancer metastasis” (priority 2005, dated 2010).

Columns and labels:
[1] = test system: p68 RNA helicase tyrosine phosphorylation; assay: Tyrosyl phosphorylation of p68 RNA helicase in cancer cells after treatment (immunoprecipitation with PAbp68, Western Blot with p-tyr-100); type: cell-based, human
Source text: After the tissue samples were homogenized, the protein extracts were made from the homogenized sample. The tissue was screened for phosphorylated p68 RNA helicase in two steps. In the first step, the polyclonal antibody PAbp68 was used to isolate p68 RNA helicase from the extracts. In the second step, the antibody p-tyr-100 was used to detect the phosphorylated p68 RNA helicase from the total isolated p68 RNA helicase by the Western Blot. The intensity of the Western Blot signal by the antibody p-tyr-100, in the second step, corresponds to the level of phosphorylated p68 RNA helicase in the sample.
The Western Blots were carried out using antibody p68-rgg (top panel in FIG. 3A-3D) and antibody p-tyr-100 (bottom panel in FIGS. 3A-3D). The p68 RNA helicase was immunoprecipitated by antibody PAbp68.

[2] = test system: p68 RNA helicase threonine phosphorylation; assay: Threonine phosphorylation of p68 RNA helicase in cancer cells after treatment (immunoprecipitation, Western Blot with 14B3); type: cell-based, human; settings: for threonine phosphorylation of p68 RNA helicase upon treatment: six different cancer cell lines, Western Blot 14B3; for threonine phosphorylation of p68 RNA helicase upon longer treatment: 30 minutes treatment, data not shown
Protocol: The presence of phosphorylated p68 RNA helicase in cultured cells or tissue samples was examined using immunoprecipitation followed by Western Blots. Immunoblotting also was also performed with a monoclonal antibody against p68 RNA helicase to show the equal amounts or levels of p68 (phosphorylated and unphosphorylated) loaded in the western blotting. Such Western Blots include the use of antibodies to phosphorylated p68 RNA helicase and sodium dodecyl sulphate polyacrylamide gel electrophoresis (SDS-PAGE). Immunoblotting also was performed with a monoclonal antibody against p68 RNA helicase to show the presence of a positive control protein in tumor and normal samples and to indicate that there was no evidence of protein degradation in any of the tissue samples.
A polyacrylamide gel system was employed for separation of proteins. The cell nuclear extracts (80 μl) were diluted to 200 μl with RIPA buffer (160 mM NaCl, 20 mM Tris-HCl, pH 7.5, 1 mM EDTA, 1 mM EGTA, 1 mM DTT, 0.1% Triton X-100, 1% sodium deoxycholate, 0.1% SDS, 1 mM sodium vanadate, and 1 mM PMSF). The antibody PAbp68 then was added to the mixture. The solution subsequently was incubated at 4° C. for 4 hours. Protein A agarose bead slurry (40 μl) then was added and the mixture underwent rotation. The beads were recovered and washed with 5×600 μl RIPA buffer with 0.08% SDS. The precipitated proteins were analyzed by SDS-PAGE followed by Western Blot.
The Western Blot analysis was performed with a commercially available ECL Western Blot and detection kit (Amersham Biosciences). The supernatant from the culture medium of hybridoma cells P68-rgg were used in the blotting experiments at a 5:1 dilution. The polyclonal antibody PAbp68 was used in 1:3000 dilution. The antibodies, PY100 and 14B3 were used with 1:2000 dilution.
The phosphorylation of p68 RNA helicase was investigated using HeLA S3, A549, HEL299, CCD-112CoN, HepG2, and MCF-7 cells. The HeLa S3 and A549 cells were grown in Ham's F12K medium supplemented with 10% fetal bovine serum. The HEL299, CCD-112CoN, HepG2, and MCF-7 cells were maintained in minimum essential medium supplemented with 10% fetal bovine serum. The culture medium contained 2 mM L-glutamine and Earle's BSS adjusted to contain 1.5 g/l of sodium bicarbonate, 0.1 mM of non-essential amino acids, and 1.0 mM sodium pyruvate. The Caco-2 cells were grown in a similar medium condition to that of HEL299 cells but supplemented with 20% fetal bovine serum. The RPMI 1788 and K562 cells were grown in Iscove's modified Dulbecco's medium supplemented with 10% fetal bovine serum. The HEK293 and Hs 578Bst cells were grown in modified Dulbecco's medium containing 10% fetal bovine serum. All cell culture medium contained penicillin (100 U/ml) and streptomycin (100 μg/ml). The cells were grown to 90% confluency prior to performing any experiment.
The phosphorylations of p68 RNA helicase responded differently to different anticancer treatments.
FIGS. 2A and 2B show Western Blots of immunoprecipitated cellular p68 RNA helicase from different cancer cells (indicated). The immuno-blots were carried out using antibody p68-rgg (FIG. 2, top panel in A and B), antibody p-tyr-100 (middle panel in A and B), and antibody 14B3 (FIG. 2, bottom panel in A and B). The + and − represent with or without TNF-α or TRAIL treatments. Tyrosine dephosphorylation and threonine phosphorylation of p68 RNA helicase was present in cancer cells upon the panel (A) TNF-α or panel (B) TRAIL treatments.

[3] = six different cancer cell lines (A549, Caco-2, HepG2, K562, MCF-7, HeLa S3), Western Blot p-tyr-100

## Cc1ccc(NC(=O)c2ccc(CN3CCN(C)CC3)cc2)cc1Nc1nccc(-c2cccnc2)n1 [STI-571, reference compound]
[1]; MCF-7 breast cancer cells
  tyrosine phosphorylation of p68 RNA helicase upon treatment: decreases in the tyrosine phosphorylation level rather than complete dephosphorylation

## CC(=O)O[C@H]1C(=O)[C@@]2(C)[C@H]([C@H](OC(=O)c3ccccc3)[C@]3(O)C[C@H](OC(=O)[C@H](O)[C@@H](NC(=O)c4ccccc4)c4ccccc4)C(C)=C1C3(C)C)[C@]1(OC(C)=O)CO[C@@H]1C[C@@H]2O [TAXOL®, reference compound]
[2]
  threonine phosphorylation of p68 RNA helicase upon treatment: Threonine phosphorylation was not detected
[1]; [3]
  tyrosine phosphorylation of p68 RNA helicase upon treatment: tyrosyl dephosphorylation was not observed

## COc1cc([C@@H]2c3cc4c(cc3[C@@H](O[C@@H]3O[C@@H]5CO[C@@H](C)O[C@H]5[C@H](O)[C@H]3O)[C@H]3COC(=O)[C@H]23)OCO4)cc(OC)c1O [etoposide, reference compound]
[2]
  threonine phosphorylation of p68 RNA helicase upon treatment: Threonine phosphorylation was not detected
[1]; [3]
  tyrosine phosphorylation of p68 RNA helicase upon treatment: tyrosyl dephosphorylation was not observed

## TNF-α
[2]
  threonine phosphorylation of p68 RNA helicase upon longer treatment: quickly dephosphorylated again
  threonine phosphorylation of p68 RNA helicase upon treatment: resulted in phosphorylation of p68 at threonine
[1]; HeLa cells
  tyrosyl phosphorylation of p68 RNA helicase upon treatment: could be dephosphorylated
[1]; [3]
  tyrosine phosphorylation of p68 RNA helicase upon treatment: led to the dephosphorylation of p68 at tyrosine residue(s)

## TRAIL: TNF Related Apoptosis-Inducer Ligand
[2]
  threonine phosphorylation of p68 RNA helicase upon longer treatment: quickly dephosphorylated again
  threonine phosphorylation of p68 RNA helicase upon treatment: resulted in phosphorylation of p68 at threonine
[1]; [3]
  tyrosine phosphorylation of p68 RNA helicase upon treatment: led to the dephosphorylation of p68 at tyrosine residue(s)
